Each block holds one molecule with its values, some of them ahead of it.
What was measured:
[1] = target: recombinant MUC5B N terminus D1-D2-D′-D3 (NT5B), from 293-EBNA cells (human) (UniProt Q9HC84); test: AUC; sedimentation velocity, 35,000 rpm, 20 °C; NT5B in 5 mM EGTA at pH 7.4 or pH 6, or 5 mM CaCl2 at pH 7.4
[2] = target: recombinant MUC5B N terminus D1-D2-D′-D3 (NT5B), from 293-EBNA cells (human) (UniProt Q9HC84); test: SDS-PAGE, reduced and nonreduced; purified recombinant proteins from 293-EBNA conditioned medium; shows disulfide-linked dimers
[3] = target: recombinant MUC5B N terminus D1-D2-D′-D3 (NT5B), from 293-EBNA cells (human) (UniProt Q9HC84); test: SEC-MALLS; Superose 6 10/300, 25 mM Hepes, 150 mM NaCl, with 5 mM CaCl2 or 5 mM EGTA at pH 7.4 or pH 6, room temperature, after overnight incubation at 4 °C
[4] = target: disulfide-linked NT5B dimer (human) (UniProt Q9HC84); test: AUC; sedimentation velocity, 35,000 rpm, 20 °C; NT5B in 5 mM CaCl2 at pH 5
[5] = target: disulfide-linked NT5B dimer (human) (UniProt Q9HC84); test: AUC; sedimentation velocity, 35,000 rpm, 20 °C; NT5B in 5 mM CaCl2 at pH 6; reversed by 10 mM EGTA and pH 7.4
[6] = target: disulfide-linked NT5B dimer (human) (UniProt Q9HC84); test: SEC-MALLS; NT5B in 5 mM CaCl2 at pH 6, Superose 6 10/300, 25 mM Hepes, 150 mM NaCl; recovery in the dimer peak compared with 5 mM EGTA at pH 6
[7] = target: recombinant MUC5B N terminus D1-D2-D′-D3 (NT5B), from A549 cells (human) (UniProt Q9HC84); test: SDS-PAGE (reduced and nonreduced) and Western blot with anti-His antibody; conditioned medium of transiently transfected A549 cells
[8] = target: the molecule itself; test: SDS-PAGE, reduced and nonreduced; purified recombinant proteins from 293-EBNA conditioned medium; shows disulfide-linked dimers

Molecule: recombinant MUC5B N terminus D1-D2-D′-D3 (NT5B), from A549 cells (from UniProt Q9HC84 26-1304) (domain or fragment)
stoichiometry N [7]: 2

B1: recombinant MUC5B D3 domain (domain or fragment, human, UniProt Q9HC84 894-1304, looked up)
chain: TCVAYGDGHFITFDGDRYSFEGSCEYILAQDYCGDNTTHGTFRIVTENIPCGTTGTTCSKAIKLFVESYELILQEGTFKAVARGPGGDPPYKIRYMGIFLVIETHGMAVSWDRKTSVFIRLHQDYKGRVCGLCGNFDDNAINDFATRSRSVVGDALEFGNSWKLSPSCPDALAPKDPCTANPFRKSWAQKQCSILHGPTFAACRSQVDSTKYYEACVNDACACDSGGDCECFCTAVAAYAQACHDAGLCVSWRTPDTCPLFCDFYNPHGGCEWHYQPCGAPCLKTCRNPSGHCLVDLPGLEGCYPKCPPSQPFFNEDQMKCVAQCGCYDKDGNYYDVGARVPTAENCQSCNCTPSGIQCAHSLEACTCTYEDRTYSYQDVIYNTTDGLGACLIAICGSNGTIIRKAVACPG
notes: MUC5B, human, D3 domain, residues 894-1304; also called D3 protein
stoichiometry N [8]: 2

B2: recombinant MUC5B D2-D′-D3 domains (domain or fragment, human, UniProt Q9HC84 425-1304, looked up)
chain: CSVQGGAHISTYDEKLYDLHGDCSYVLSKKCADSSFTVLAELRKCGLTDNENCLKAVTLSLDGGDTAIRVQADGGVFLNSIYTQLPLSAANITLFTPSSFFIVVQTGLGLQLLVQLVPLMQVFVRLDPAHQGQMCGLCGNFNQNQADDFTALSGVVEATGAAFANTWKAQAACANARNSFEDPCSLSVENENYARHWCSRLTDPNSAFSRCHSIINPKPFHSNCMFDTCNCERSEDCLCAALSSYVHACAAKGVQLSDWRDGVCTKYMQNCPKSQRYAYVVDACQPTCRGLSEADVTCSVSFVPVDGCTCPAGTFLNDAGACVPAQECPCYAHGTVLAPGEVVHDEGAVCSCTGGKLSCLGASLQKSTGCAAPMVYLDCSNSSAGTPGAECLRSCHTLDVGCFSTHCVSGCVCPPGLVSDGSGGCIAEEDCPCVHNEATYKPGETIRVDCNTCTCRNRRWECSHRLCLGTCVAYGDGHFITFDGDRYSFEGSCEYILAQDYCGDNTTHGTFRIVTENIPCGTTGTTCSKAIKLFVESYELILQEGTFKAVARGPGGDPPYKIRYMGIFLVIETHGMAVSWDRKTSVFIRLHQDYKGRVCGLCGNFDDNAINDFATRSRSVVGDALEFGNSWKLSPSCPDALAPKDPCTANPFRKSWAQKQCSILHGPTFAACRSQVDSTKYYEACVNDACACDSGGDCECFCTAVAAYAQACHDAGLCVSWRTPDTCPLFCDFYNPHGGCEWHYQPCGAPCLKTCRNPSGHCLVDLPGLEGCYPKCPPSQPFFNEDQMKCVAQCGCYDKDGNYYDVGARVPTAENCQSCNCTPSGIQCAHSLEACTCTYEDRTYSYQDVIYNTTDGLGACLIAICGSNGTIIRKAVACPG
notes: MUC5B, human, D2-D′-D3 domains, residues 425-1304
stoichiometry N [8]: 2

More lines, now with the values ahead:

stoichiometry N [1]: 2
stoichiometry N [2]: 2
stoichiometry N [3]: 2
Molecule: recombinant MUC5B N terminus D1-D2-D′-D3 (NT5B), from 293-EBNA cells (from UniProt Q9HC84 26-1304) (domain or fragment)

higher order multimeric species, percent of total [4]: 44 % of total
multimeric fraction (peak III), percent of total [5]: 29 % of total
reduction of protein recovered in the dimer peak (5 mM CaCl2 pH 6 against 5 mM EGTA pH 6) [6]: 15%
Molecule: disulfide-linked NT5B dimer (from UniProt Q9HC84 26-1304) (complex)

Reference: paper PMC4047408, “Assembly of the Respiratory Mucin MUC5B” (The Journal of Biological Chemistry, 2014)
